Results from a protein production outcome set (Wang et al. 2014).

test: label from the status in PepcDB records

Protein production, failed:
MVCCPVNENAAALVVSDGRVMIWELKSAVCNRNSRNSSSGVSPLYSPVSFCGIPVGVLQNKLPDLSLDNMIGQSAIAGEEHPRGSILREVHLKFLLTGLLSGLPAPQFAIRMCPPLTTKNIKMYQPLLAVGTSNGSVLVYHLTSGLLHKELSIHSCEVKGIEWTSLTSFLSFATSTPNNMGLVRNELQLVDLPTGRSIAFRGERGNDESAIEMIKVSHLKQYLAVVFRDKPLELWDVRTCTLLREMSKNFPTITALEWSPSHNLKSLRKKQLATREAMARQTVVSDTELSIVESSVISLLQEAESKSELSQNISARGHFVFTDIDGQVYHLTVEGNSVKDSARIPPDGSMGSITCIAWKGDTLVLGDMDGNLNFWDLKGRVSRGIPTHRSWVRKIRFAPGKGNQKLIAMYNDGAEVWDTKEVQMVSSLRSGRNVTFRILDVDWCTSDKVILASDDGCIRVLEMSMKSACFRMDEQELTEPVWCPYLLVPRASLALKAFLLHQPWNGQYSLDISHVDYPENEEIKNLLQEQLNSLSNDIKKLLLDPEFTLLQRCLLVSRLYGDESELHFWTVAAHYLHSLSQEKSASTTAPKEAAPRDKLSNPLDICYNVLCENAYFQKFQLERVNLQEVKRSTYDHTRKCTDQLLLLGQTDRAVQLLLETSADNQHYYCDSLKACLVTTVTSSGPSQSTIKLVATNMIANGKLAEGVQLLCLIDKAADACRYLQTYGEWNRAAWLAKVRLNPEECADVLRRWVDHLCSPQVNQKSKALLVLLSLGCFFSVAETLHSMRYFDRAALFVEACLKYGAFEVTEDTEKLITAIYADYARSLKNLGFKQGAVLFASKAGAAGKDLLNELESPKEEPIEE, MVCDKCEKKLSKVIVPDKWKDGARNVTEGGGRKINENKLLSKKNRWSPYSTCTTKCMICKQQVHQDGKYCHTCAYSKGVCAMCGKQVLDTKMYKQSNV, MVDDNTDQSLSFGRLLFGAGLALQASEDFREMDETVEYAESAGVPVPDVLAPLASGMMLVGGIGVALWRFPRIATGAVVTFLAVVTPTMHDFWNAEPGDRSGERLAFFGNLAMLGAALAYLRKAYR, MVDFKVVLSDPKTGLSYKIDAAGAAAGALLGKKIGTEVDGAPFGMSGYKITITGGSDKTGTPARPDLPGNGRRGLLISDGFGFNATHNGERRRKSQRGNEIAADFVQVNAKITVYGEKPVTEIFAAAAE, MVDHGMFYSSRMSTLSSNGRGDAYTCKKALHLTLNKPNVVKACSDLKKNEHQISRDFAAETKKKTEFLVLKKNNDERSKTGEVTREKKQSALPLKLSKTPRSGTGEIKQTLKKRGLSKSVPETSRLIKLKKQPPVKVSDKPKSCPVLTKNDTDTLELFEIAKKSADFANAKGILASEVETSMCVDTLTLLLEFPISARDMETRKLMVRLEHLTKHKNRKICNSASKLLQCWRESIREQQLRESRKTQG, MVDTTILAQALGFISFGLGFSVFYQKNDRHLKILMLIFNLNHLLHFLLLGSMVSALSALLSALRTTTAIFVSSKRVAAVFIVISLVSGFWVAEQWRDLWPIIGTVIGTYSVFCLSGIRMRIGFLLGASCWLTNNILVGSIGGTLLEMTVIVMNLLTIYRLHRQQSESMINQSSY, MVEEKVVEKGKERAVEVTKWRRVFDDYRAMSDEILRPDEPKKEKFLEAMRKYLTKQNWPFLLPYKLTLEACTKCGTCAEACTMYLGSGRKKIYSPVYRSDMLRKIYKKHFTLTGKLFGPLIGAKDPTEDDINALAESAYRCTVCRRCALACPFGLDNGLITRETRKIFADLGIVPDELKDNGVENQLKYGNAPKIPYEAFMDILEFIKEDIEDEKGVEVEIPVDKKGAKYLIMNNAGDYLAFTETVQGIVEIMNYVGEDWTLNSPKTGVNDIVNYGLFYSDEDLVRVMKAHVETAKKLDVEYLVVGECGHAYDSIAHFAKDLIPPEERPFKVISWMELLDQFIREGKLKLDKEKNPEPVTFHDSCKWGRTGGIYEEPRRILQAACKDFREMYPNREWNYCCGGGGGFAIMAKDDFLKFRMETYGKMKVQQLKQTGAKIIATICSNCKAQFREMINYYNLDMRFSGVSELVANALVYE
